In patent US20160002599A1:
Where “and” joins values, the source holds several entries; their conditions need not be identical. Equal entries are not always repeated.

Molecular target: von Willebrand factor (vWF)
Test: cell-based or functional assay

Sequence of von Willebrand factor (vWF) (P04275 764-2813): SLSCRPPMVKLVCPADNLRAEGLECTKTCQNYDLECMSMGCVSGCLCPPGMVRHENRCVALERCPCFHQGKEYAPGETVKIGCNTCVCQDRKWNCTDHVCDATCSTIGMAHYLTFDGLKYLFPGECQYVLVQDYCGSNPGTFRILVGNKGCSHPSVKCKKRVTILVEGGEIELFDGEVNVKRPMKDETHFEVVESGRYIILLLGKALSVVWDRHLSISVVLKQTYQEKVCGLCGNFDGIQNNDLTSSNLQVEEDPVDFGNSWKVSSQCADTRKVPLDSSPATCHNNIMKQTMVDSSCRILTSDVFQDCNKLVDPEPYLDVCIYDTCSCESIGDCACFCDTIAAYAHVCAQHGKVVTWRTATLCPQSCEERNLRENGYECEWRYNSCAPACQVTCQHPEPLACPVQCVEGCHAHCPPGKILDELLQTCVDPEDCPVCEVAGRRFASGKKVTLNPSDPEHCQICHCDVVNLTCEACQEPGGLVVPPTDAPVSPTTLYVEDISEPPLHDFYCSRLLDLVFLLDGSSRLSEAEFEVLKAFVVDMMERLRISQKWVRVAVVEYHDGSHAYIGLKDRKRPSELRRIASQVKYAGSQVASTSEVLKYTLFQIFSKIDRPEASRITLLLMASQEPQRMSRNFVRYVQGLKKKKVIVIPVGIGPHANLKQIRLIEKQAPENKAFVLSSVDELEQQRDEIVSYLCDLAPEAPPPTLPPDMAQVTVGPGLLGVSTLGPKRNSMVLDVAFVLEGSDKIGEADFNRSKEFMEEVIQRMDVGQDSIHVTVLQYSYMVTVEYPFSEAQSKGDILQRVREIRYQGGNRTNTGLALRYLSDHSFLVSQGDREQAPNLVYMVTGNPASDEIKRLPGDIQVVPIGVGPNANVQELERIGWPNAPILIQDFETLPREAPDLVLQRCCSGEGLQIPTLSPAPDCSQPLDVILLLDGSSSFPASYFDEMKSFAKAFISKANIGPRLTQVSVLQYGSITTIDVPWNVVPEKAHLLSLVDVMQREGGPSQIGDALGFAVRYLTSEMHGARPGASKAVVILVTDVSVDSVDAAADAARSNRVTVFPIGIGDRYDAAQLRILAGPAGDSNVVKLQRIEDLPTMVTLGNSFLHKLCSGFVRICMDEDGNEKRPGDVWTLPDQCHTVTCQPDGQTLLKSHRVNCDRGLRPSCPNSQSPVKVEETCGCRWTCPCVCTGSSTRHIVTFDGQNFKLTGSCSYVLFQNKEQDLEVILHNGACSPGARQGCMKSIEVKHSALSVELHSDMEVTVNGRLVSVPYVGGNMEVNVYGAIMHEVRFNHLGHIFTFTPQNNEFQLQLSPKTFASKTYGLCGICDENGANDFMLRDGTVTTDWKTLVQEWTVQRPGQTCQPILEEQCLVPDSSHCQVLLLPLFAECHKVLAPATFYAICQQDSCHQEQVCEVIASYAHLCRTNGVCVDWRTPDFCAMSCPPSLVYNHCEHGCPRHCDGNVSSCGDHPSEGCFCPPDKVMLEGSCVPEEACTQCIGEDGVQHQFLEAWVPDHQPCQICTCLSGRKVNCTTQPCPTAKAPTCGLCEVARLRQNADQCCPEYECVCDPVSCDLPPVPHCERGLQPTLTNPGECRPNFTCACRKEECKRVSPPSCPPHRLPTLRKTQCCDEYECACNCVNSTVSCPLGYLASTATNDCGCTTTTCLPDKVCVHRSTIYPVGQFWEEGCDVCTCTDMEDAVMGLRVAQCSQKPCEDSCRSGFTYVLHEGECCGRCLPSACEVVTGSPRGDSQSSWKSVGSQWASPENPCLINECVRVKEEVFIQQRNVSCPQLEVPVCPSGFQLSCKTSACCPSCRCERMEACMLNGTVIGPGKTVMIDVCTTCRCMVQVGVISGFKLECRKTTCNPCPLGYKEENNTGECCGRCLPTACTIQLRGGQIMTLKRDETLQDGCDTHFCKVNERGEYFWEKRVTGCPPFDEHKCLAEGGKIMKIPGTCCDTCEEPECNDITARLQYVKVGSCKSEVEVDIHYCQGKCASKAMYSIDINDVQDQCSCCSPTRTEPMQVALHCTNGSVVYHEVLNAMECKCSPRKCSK

## CD42b (from UniProt P07359 17-652) (receptor)
  platelets bound to the channel (chamber coated with 10 ug/mL vWF, flow rate 1600 s-1): 62.3% and 75.8%
